First the molecules themselves.
B1: Compound 76 (peptide)
peptide: Ac-SEFCI[Trp(1-Me)]QDW[Sar]EHRC[Sar]EA-NH2
modifications: disulfide 4-14
SMILES: CC[C@H](C)[C@@H]1NC(=O)[C@@H](NC(=O)[C@H](Cc2ccccc2)NC(=O)[C@H](CCC(=O)O)NC(=O)[C@H](CO)NC(C)=O)CSSC[C@@H](C(=O)N(C)CC(=O)N[C@@H](CCC(=O)O)C(=O)N[C@@H](C)C(N)=O)NC(=O)[C@H](CCCNC(=N)N)NC(=O)[C@H](Cc2c[nH]cn2)NC(=O)[C@H](CCC(=O)O)NC(=O)CN(C)C(=O)[C@H](Cc2c[nH]c3ccccc23)NC(=O)[C@H](CC(=O)O)NC(=O)[C@H](CCC(N)=O)NC(=O)[C@H](Cc2cn(C)c3ccccc23)NC1=O
B2: Compound 70 (peptide)
peptide: Ac-EGSAYCI[Trp(1-Me)]QEWGEHRC[Sar]E-NH2
modifications: disulfide 6-16
SMILES: CC[C@H](C)[C@@H]1NC(=O)[C@@H](NC(=O)[C@H](Cc2ccc(O)cc2)NC(=O)[C@H](C)NC(=O)[C@H](CO)NC(=O)CNC(=O)[C@H](CCC(=O)O)NC(C)=O)CSSC[C@@H](C(=O)N(C)CC(=O)N[C@@H](CCC(=O)O)C(N)=O)NC(=O)[C@H](CCCNC(=N)N)NC(=O)[C@H](Cc2c[nH]cn2)NC(=O)[C@H](CCC(=O)O)NC(=O)CNC(=O)[C@H](Cc2c[nH]c3ccccc23)NC(=O)[C@H](CCC(=O)O)NC(=O)[C@H](CCC(N)=O)NC(=O)[C@H](Cc2cn(C)c3ccccc23)NC1=O
B3: Compound 74 (peptide)
peptide: Ac-SEFCI[Trp(1-Me)]QDWGEHRC[Sar]GAES-NH2
modifications: disulfide 4-14
SMILES: CC[C@H](C)[C@@H]1NC(=O)[C@@H](NC(=O)[C@H](Cc2ccccc2)NC(=O)[C@H](CCC(=O)O)NC(=O)[C@H](CO)NC(C)=O)CSSC[C@@H](C(=O)N(C)CC(=O)NCC(=O)N[C@@H](C)C(=O)N[C@@H](CCC(=O)O)C(=O)N[C@@H](CO)C(N)=O)NC(=O)[C@H](CCCNC(=N)N)NC(=O)[C@H](Cc2c[nH]cn2)NC(=O)[C@H](CCC(=O)O)NC(=O)CNC(=O)[C@H](Cc2c[nH]c3ccccc23)NC(=O)[C@H](CC(=O)O)NC(=O)[C@H](CCC(N)=O)NC(=O)[C@H](Cc2cn(C)c3ccccc23)NC1=O
B4: Compound 72 (peptide)
peptide: Ac-FCI[Trp(1-Me)]QDW[Sar]EHRCTGAES-NH2
modifications: disulfide 2-12
SMILES: CC[C@H](C)[C@@H]1NC(=O)[C@@H](NC(=O)[C@H](Cc2ccccc2)NC(C)=O)CSSC[C@@H](C(=O)N[C@H](C(=O)NCC(=O)N[C@@H](C)C(=O)N[C@@H](CCC(=O)O)C(=O)N[C@@H](CO)C(N)=O)[C@@H](C)O)NC(=O)[C@H](CCCNC(=N)N)NC(=O)[C@H](Cc2c[nH]cn2)NC(=O)[C@H](CCC(=O)O)NC(=O)CN(C)C(=O)[C@H](Cc2c[nH]c3ccccc23)NC(=O)[C@H](CC(=O)O)NC(=O)[C@H](CCC(N)=O)NC(=O)[C@H](Cc2cn(C)c3ccccc23)NC1=O
B5: Compound 71 (peptide)
peptide: Ac-SEYCI[Trp(1-Me)]QDWGEHRC[Sar]EA-NH2
modifications: disulfide 4-14
SMILES: CC[C@H](C)[C@@H]1NC(=O)[C@@H](NC(=O)[C@H](Cc2ccc(O)cc2)NC(=O)[C@H](CCC(=O)O)NC(=O)[C@H](CO)NC(C)=O)CSSC[C@@H](C(=O)N(C)CC(=O)N[C@@H](CCC(=O)O)C(=O)N[C@@H](C)C(N)=O)NC(=O)[C@H](CCCNC(=N)N)NC(=O)[C@H](Cc2c[nH]cn2)NC(=O)[C@H](CCC(=O)O)NC(=O)CNC(=O)[C@H](Cc2c[nH]c3ccccc23)NC(=O)[C@H](CC(=O)O)NC(=O)[C@H](CCC(N)=O)NC(=O)[C@H](Cc2cn(C)c3ccccc23)NC1=O

Positions of bridges follow the written chain, without caps; N, C: chain ends. Non-standard residues stand in square brackets, D forms with d. Trp(1-Me) = Cn1cc(C[C@H](N)C(=O)O)c2ccccc21; Sar = CNCC(=O)O A value given as a limit tells only on which side of the number the result lay.

The target in this experiment is Human C3 (Complement tech cat #A113c) (human, UniProt P01024 23-1663). Kind of experiment: cell-based or functional assay.
Chain of Human C3 (Complement tech cat #A113c) (P01024 23-1663 limits assumed): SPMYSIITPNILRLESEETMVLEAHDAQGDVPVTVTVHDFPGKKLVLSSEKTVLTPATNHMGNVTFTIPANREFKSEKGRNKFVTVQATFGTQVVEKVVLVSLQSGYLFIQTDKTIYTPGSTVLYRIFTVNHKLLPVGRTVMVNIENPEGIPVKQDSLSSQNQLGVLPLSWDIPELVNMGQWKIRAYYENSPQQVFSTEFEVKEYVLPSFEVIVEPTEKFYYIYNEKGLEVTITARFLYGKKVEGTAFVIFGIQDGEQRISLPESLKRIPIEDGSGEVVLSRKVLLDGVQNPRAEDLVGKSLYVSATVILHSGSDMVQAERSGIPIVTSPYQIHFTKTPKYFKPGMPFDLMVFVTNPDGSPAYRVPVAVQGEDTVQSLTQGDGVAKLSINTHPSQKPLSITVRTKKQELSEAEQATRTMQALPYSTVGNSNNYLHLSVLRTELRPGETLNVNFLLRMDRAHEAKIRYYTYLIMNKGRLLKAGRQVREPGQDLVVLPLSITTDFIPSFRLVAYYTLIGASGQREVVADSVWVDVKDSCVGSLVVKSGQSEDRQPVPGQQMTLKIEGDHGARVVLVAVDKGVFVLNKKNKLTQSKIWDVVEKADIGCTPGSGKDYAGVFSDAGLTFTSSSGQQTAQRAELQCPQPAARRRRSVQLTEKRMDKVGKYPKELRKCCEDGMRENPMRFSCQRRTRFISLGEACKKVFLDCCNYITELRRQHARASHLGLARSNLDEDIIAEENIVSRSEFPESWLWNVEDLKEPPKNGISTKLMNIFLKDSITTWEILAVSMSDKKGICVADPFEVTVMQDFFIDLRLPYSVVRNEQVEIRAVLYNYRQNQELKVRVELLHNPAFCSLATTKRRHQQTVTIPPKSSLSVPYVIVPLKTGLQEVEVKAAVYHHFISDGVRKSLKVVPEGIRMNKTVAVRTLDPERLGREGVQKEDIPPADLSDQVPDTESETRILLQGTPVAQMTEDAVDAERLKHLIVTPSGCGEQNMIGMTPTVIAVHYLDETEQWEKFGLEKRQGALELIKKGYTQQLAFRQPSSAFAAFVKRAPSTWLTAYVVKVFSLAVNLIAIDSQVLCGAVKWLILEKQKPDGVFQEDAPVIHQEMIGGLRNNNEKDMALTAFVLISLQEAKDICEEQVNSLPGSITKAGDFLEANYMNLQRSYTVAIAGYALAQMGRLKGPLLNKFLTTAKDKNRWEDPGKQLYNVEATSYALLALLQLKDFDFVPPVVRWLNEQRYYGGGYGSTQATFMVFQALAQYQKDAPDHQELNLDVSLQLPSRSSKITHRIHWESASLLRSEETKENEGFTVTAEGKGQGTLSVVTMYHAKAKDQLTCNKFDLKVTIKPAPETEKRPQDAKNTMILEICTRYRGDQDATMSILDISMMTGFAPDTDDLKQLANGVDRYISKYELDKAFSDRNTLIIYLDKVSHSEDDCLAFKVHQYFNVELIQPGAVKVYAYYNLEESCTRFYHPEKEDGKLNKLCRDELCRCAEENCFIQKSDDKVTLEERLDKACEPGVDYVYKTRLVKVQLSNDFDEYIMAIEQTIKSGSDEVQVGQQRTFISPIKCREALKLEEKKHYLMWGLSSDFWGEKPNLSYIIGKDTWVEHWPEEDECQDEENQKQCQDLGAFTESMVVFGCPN
Turning to B1, the “inhibition of hemolysis IC50” value was less than 0.1 µM.

Consider B2, for which the “inhibition of hemolysis IC50” value was less than 0.1 µM.

On to B3, for which the “inhibition of hemolysis IC50” value was less than 0.1 µM.

Turning to B4, the “inhibition of hemolysis IC50” value was less than 0.1 µM.

On to B5, for which the “inhibition of hemolysis IC50” value was less than 0.1 µM.

For the origin of these results see US11965039B2, “Compstatin analogues and their medical uses” (priority 2018, dated 2024).
